For assay [1], the target named is T1, cynomolgus PD-1-his protein (Cat#:PD1-05223, Acro biosystems Inc.) (cynomolgus, UniProt B0LAJ3 25-170).
T1 construct: Bought protein used in Biacore and indirect ELISA; also called monkey PD-1; Cyno PD-1
The experiment in a line: indirect ELISA on coated cynomolgus PD-1-his.

Assay [2] has as its target T1, cynomolgus PD-1-his protein …. The experiment in a line: indirect ELISA on coated cynomolgus PD-1-his; unit from the axis 'Con of mAb, nM.'. As to the method: (§1) Briefly, 96-well micro plates were coated with 100 μl 2 μg/ml mouse PD-1-his (Cat#:50124-M08H, Sino Biological Inc) or 2 μg,/ml cynomolgus PD-1-his (Cat#:PD1-05223, Acro biosystems Inc.) in carbonate/bicarbonate buffer (pH 9.6) for 2 hours at 37° C. Plates were washed once with wash buffer (PBST, PBS+0.05% Tween-20) and then blocked with 200 μl blocking buffer (5% w/v non-fatty milk in PBST) for 2 hours at 37° C. […] ELISA plates were washed 4 times and incubated with Peroxidase AffiniPure goat anti-mouse IgG, Fcγ Fragment Specific (1:5000 dilution in PBST buffer, Cat#:115-035-071, Jackson ImmunoResearch Laboratories, Inc., 100 μl/well) or Peroxidase AffiniPure F(ab′)₂ Fragment Goat Anti-Human IgG, Fcγ fragment specific (Cat#:109-036-098, Jackson ImmunoResearch, for the controls) for 40 minutes at 37° C. After a final wash, plates were incubated with 100 μl/well TMB (Cat#:TMB-S-002, innoreagents) at room temperature. The reaction was stopped 3-10 minutes later with 50 μl/well 1M H₂SO₄, and the absorbance was read on a microplate reader using dual wavelength mode with 450 nm for TMB and 630 nm as the reference wavelength. Then the OD (450-630) values were plotted against antibody concentrations. Data was analyzed using GraphPad Prism software and EC₅₀ values were reported.
(In general: ELISA stands for enzyme-linked immunosorbent assay.)

In assay [3] the target is T2, full length mouse PD-1 expressed on 293F-mouse PD-1 cells (mouse, UniProt Q02242 25-288).
T2 construct: also called cell surface mouse PD-1
T2 sequence: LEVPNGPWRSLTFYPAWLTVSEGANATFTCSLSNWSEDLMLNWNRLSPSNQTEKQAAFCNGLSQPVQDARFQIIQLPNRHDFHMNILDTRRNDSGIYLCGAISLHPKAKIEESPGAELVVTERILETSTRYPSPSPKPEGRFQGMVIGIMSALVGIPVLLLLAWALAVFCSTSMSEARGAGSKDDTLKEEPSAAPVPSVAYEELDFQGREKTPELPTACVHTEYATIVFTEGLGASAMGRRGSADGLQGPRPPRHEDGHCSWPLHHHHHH
The experiment in a line: cell-based binding FACS on 293F-mouse PD-1 cells (MFI); unit from the axis 'Con of mAb, nM.'. Here is the method:
The binding activities of the mouse anti-PD-1 antibodies to mouse PD-1s expressed on cell surface were tested by flow cytometry (FACS), using Biosion in-house prepared 293F-mouse PD-1 cells expressing full length mouse PD-1 (SEQ ID NO.: 27) on cell membrane. The 293F-mouse PD-1 cells were prepared by transfecting 293F cells with a PCMV-T-P plasmid inserted with mouse PD-1 coding sequence between EcoR I and XbaI sites, following the instruction of lipofectamine 3000 transfection reagent (Thermo Fisher).
(§2) In specific, the 293F-mouse PD-1 cells and GS-J2/PD-1 cells were respectively harvested from cell culture flasks, washed twice and re-suspended in PBS containing 2% v/v Fetal Bovine Serum (FACS buffer). Then, 2×10⁵ cells per well were incubated in 96 well-plates with 100 μl of the anti-PD1 antibodies or controls at various concentrations for 40 minutes on ice. […] Following an incubation of 40 minutes at 4° C. in dark, cells were washed three times and re-suspended in FACS buffer. Fluorescence was measured using a Becton Dickinson FACS Canto II-HTS equipment and plotted against antibody concentrations. Data was analyzed using GraphPad Prism software and EC₅₀ values were reported.

Assay [4] concerns the target T3, human PD-1 expressed on GS-J2/PD-1 cells (Genscript) (human, UniProt Q15116 25-288). The experiment in a line: cell-based or functional assay.
In assay [5] the target is T3, human PD-1 expressed on GS-J2/PD-1 …. The experiment in a line: flow cytometry on GS-J2/PD-1 cells. As to the method: as §2
For the cell-based binding FACS, R-Phycoerythrin AffiniPure Goat Anti-human IgG Fcγ fragment specific (Cat#:109-115-098, Jackson ImmunoResearch) was used for the humanized antibodies, with 1:1000 dilution in FACS buffer, 100 μl/well.
(In general: Flow cytometry measures light scatter and fluorescence of single cells or particles in a stream.)

Assay [6] deals with T4, in house made human PD-1-Fc protein (human, biotin-labeled (sites not given)).
T4 construct: also called biotin-labeled human PD-1-Fc
The experiment in a line: competitive ELISA: biotin human PD-1-Fc + antibody on coated human PD-L1-Fc (competitor). As to the method: (§3) Briefly, 100 μl human PD-L1-Fc protein (prepared in-house with SEQ ID NO: 28) at 2 μg/mL in carbonate/bicarbonate buffer (pH 9.6) was coated on 96-well micro plates overnight at 4° C., Plates were washed with wash buffer (PBS+0.05% w/v Tween-20, PBST), and blocked with 5% w/v non-fatty milk in PBST for 2 hours at 37° C. […] After incubation at 37° C. for 40 minutes, plates were washed using wash buffer. […] Plates were washed again using wash buffer. Finally, TMB was added and the reaction was stopped using 1M H₂SO₄. The absorbance was read on a microplate reader using dual wavelength mode with 450 nm for TMB and 630 nm as the reference wavelength, then the OD (450-630) values were plotted against antibody concentrations. Data was analyzed using Graphpad Prism software and IC₅₀ values were reported.

The target in assay [7] is T4, in house made human PD-1-Fc protein. The experiment in a line: competitive ELISA: antibody pre-mixed with biotin-labeled human PD-1-Fc, added to coated human PD-L1-Fc (blocked ligand); unit from the axis 'Con of mAb, nM.'. As to the method:
The activities of the anti-PD1 antibodies of the disclosure to block PD-L1-PD1 binding were measured in a competitive ELISA.
as §3

For assay [8], the target named is T1, cynomolgus PD-1-his protein …. The experiment in a line: indirect ELISA on coated cynomolgus PD-1-his; unit from the axis 'Con of mAb, nM.'. Here is the method:
as §1
This is another data set of the same source.

The results in this text go back to patent US20230331848A1 (BIOSION, published 2023).

The EC50 is the concentration needed to bring the measured effect to its halfway point. Read a low EC50 as a more potent agent. For orientation: IC50 means the concentration that gives 50% inhibition.

B1: mouse anti-PD-1 monoclonal antibody E1A9C8A7 (antibody, V domains shown)
VH: QVQLQQSGAEVVRPGVSVRISCKGSGYTFSDYVMHWMKQSHGESLEWIGVISTYHIPAVYNQKFKGKATMTVDKSSSTVYLELARLTSEDSAIYYCAREVYGDSYYFDVWGAGTTVTVSS
VL: DVLMTQIPLSLPVSLGDQVSISCRSSQSIVHSNGNTYLEWYLQKPGQSPKLLIYKVSNRFSGVPDRFSGSGSGTDFTLKISRVEAEDLGVYYCFQGSHVPYTFGGGTKLEIK
notes: Hybridoma-derived mouse mAb purified on Protein A; also called Mouse E1A9C8A7
Regarding B1, the EC50 in assay [1] came out at 0.07 nM; in assay [2], 0.121 nM; in assay [3], 1.27 nM; in assay [5] it was 0.44 nM. In assay [4], the “Cell-based functional assay (EC50, nM)” value came to 6.62 nM. In addition, in assay [6], the IC50 came out at 0.37 nM.

B2: mouse anti-PD-1 monoclonal antibody E2G4E10B7 (antibody, V domains shown)
VH: QVQLQQSGAELVRPGVSVKISCKGSGYTFTDYVMHWVRQSHAKSLEWIGVISTHFGDGVYNQKFKGKATMTVDKSSSTAYMELARLTSEDSAIYYCAREVYGDSWYFDVWGAGTTVTVSS
VL: DVLMTQTPLSLPVSLGDQASISCRSSQSLVHSDGNTYLEWYLQKPGQSPKLLIYKVSNRFSGVPDRFSGSGSGTDFTLKISRLEAEDLGVYYCFQGSHVPYTFGGGTKLEIK
notes: Hybridoma-derived mouse mAb; also called Mouse E2G4E10B7
As for B2, the EC50 came to 0.166 nM in assay [2] and 0.87 nM in assay [3].

B3: mouse anti-PD-1 monoclonal antibody E1G5D1H1 (antibody, V domains shown)
VH: EVQLVESGGGLVKPGGSLKLSCAASGFTFSDFYMYWVRQTPEKRLEWVATISNSGTQTYYLDSVKGRFTISRDNAKNNLYLQMSSLKSEDTAMYYCARDYYRYDSWYFDVWGAGTTVTVSS
VL: DIVLTQSPASLAVSQGQRATISCRASESVDFYGTSLMQWFQLKPGQPPKLLIYAASNVESGVPARFSGSGSGTNFSLNIHPVEEDDIAMYFCQQSRKVPWTFGGGTNLEIK
notes: Hybridoma-derived mouse mAb; also called EIG5D1H1; E1G5DIH1
In the case of B3, the 50% inhibitory concentration (IC50) in assay [7] came to 0.434 nM. Also, a half-maximal effect in assay [8] (EC50) was put at 0.142 nM.
